# Test results taken from the DeepSol protein solubility set.
# Assay: soluble on expression in E. coli; label from the status in PepcDB or PDB records
row,Sequence,soluble on expression in E. coli
1,MGSDKIHHHHHHMKPQLIASCWTSAGDAAPDRDDLSSPVAIDERIALVAETGWAGIGLVHADLIKARDTIGYEELRRRIHAAGIEIIEVEFLNGWWATGAERQESDAVRADLFAAAQALGSPHIKVGAGEGTNGVVPIAHMASAFTDLAAEAEAHGVKLALEATPFSHLKTIYDALEVVSHSDSPSAGLMVDIWHTAKIGIPNDELWRNIPLSKVNAVEVDDGFIDTPIDLFDDSTNRRAYCGEGEFDPASFIRGAIDAGWTGAYGVEIISAEHRSLPVKEGLQRAFDTTIAAFEQAARLAPSTN,not soluble
2,MGSDKIHHHHHHMNKIFKCFPDGKFKVLTMSYDDGKLSDKKLVSIFNKYGIKGTFHINSGLIGSYNRLTKAEIKTLYSGHEVSAHTLTHPTIARCPMEQVTKEILMDRENLEEIVGYPVRGLSYPNGSYNDSIRNLLKYLGIEYSRIVGNSDSFDLPSDFTAWKATCHHNHNLMEHAKEFVFLYKKQYLYMMYVWGHSYEFDRDNNWHLIENFCSYISNKDDIWYATNIEIVDYKNVLDNLKFSAKSDFVYNPSAKSAWITVNDEIVEIKGGTQLKLS,not soluble
3,SLKAKILFVGPCESGKTVLANFLTESSDITEYNPTQGVRILEFENPHVTSNNKGTGCEFELWDCGGDSKFESCWPALMKDAHGVVIVFNADIPSHLKEIEMWYSCFVQQQFLQDSHCMLVAHHKPGSGGERGSLALSPPLNKLKLVHSNLEEDPEEVRVEFIKYLKSIINSMSESRDREEMLIIT,soluble
4,MGSDKIHHHHHHMKAANLAPCLMAMLLCTACEQLPIARKAPPPPPPATTAAKPAEQPRPTPIAAHDISLAGTCRRTEDDGFREDAVMRVVSNDVKSLKWKLWVSKRGTCQFDLADFKQVQKTPHIVLEATDGTQCKLLIWQDPRRVTLAHANCQQRCTPGIYEQAWPVLFNPRNGDCAEIR,not soluble
5,MSLTEQRAVIAIYLRLSRESDDSTSLETQRSFAHRWLLAHGYDPADAVEYIDASVSGAKPLEARKGMAALMAARPTVVVAWKLDRFARSVSDFLRLVAWAEAHGASIATTDNAIDTTTATGRMVATVLAALAEWERNAIASRITDGHATRRSQGRWSSGRPPFGYRIERRDGAAYLAIDDDQAAKIRKAVAALVNGSTVAATARLTGLSEPQWRRLLKSPTLRGQRAHKGELVCEVDGITPVKFAEPILSAAELLKVRERMLALATGQDRAPRRATPMCSGMAFCHRCAGKLNGGTSDKGVPLYRCKAGHVTIYAETLDSRVESEFLTTFGSYAETVIRLEGGNDLSAELLEAKEQAERLAARMATAGPLMLGTLESLAQDLEDTHARLRAAHDPDVREVQVATGRTMAQAWEMYDVPDRSRLLAGMGLRVSLHPRQLADRLTITWGPTPEEAPEAEWDGLALSEAEGHHHHHH,not soluble
6,MGSDKIHHHHHHMVSHKKNDRPRPLWILKIHKRLSLFEFKRYATGIGKDDGQDISWVLKGNAKNNVYQVTVETMENCETDECKKVIWVPDELAESTGTMFEDFKEDQPQESVSSISNNEANWGSSVNELDENYEKMQKEETFDPYDSDSDTSEDSDFDEDFEDSDKTMCSGQS,not soluble
7,MSLELMEEVDRTVHHMQDEAANFPDPADRASQEEEFSLELRARDRERKLIKKIDETLQLIEDEEYGWCDSCGVEIGIRRLEEGHHHHHH,not soluble
8,MMLHAQHMPGQPGTPSLVFLHGFSGDCHEWQPVGEQFHGCSRLYIDLPGHGGSAAIPVDGFADVIRLLRATLISYNILKFWLVGYSLGGRVAMMAACQGIPGLCGLVVEGGHPGLQNEQARAERRLSDGRWAERFRHEPLTEVFHDWYQQPVFASLTAQQRQALTALRSQNNGETLAAMLEATSLAVQPDLREALNALAFPFYYLCGERDSKFRALAQEVAATCHVIRNAGHNAHRENPAGVVDSLAQILRL,not soluble
9,MKKLLSSDRIKAEALRLGFSACGLAPAEAVDETVATAFRQWLADGCQAEMAYMQNYEDKRLDPRLLVEGARTVISVALNYYPAKKLPEGEYQIAWYAYGKDYHDVMKRKLKELFEFIEKEVSFSEETDSTIASTNNIGTYTENYASAPQAPVSQTSASPLQGRIFCDTAPILERYWAWRTGLGWIGKNTHLIIPHAGSCFFLGEIILDREADNYDSPQRNQCGSCTRCLDACPTKALEAPFRLNSERCLSYLTIEYRGELSLNTGKKMGNKIYGCDECLKACPWNRFATPCRTAEFQPSPSLLSMKKDDWHSLSEEQYKTIFKGSAVKRAKYSGLMRNIKIIK,not soluble
10,TEKFTWNTNVSYSTNSNKVVALSSEKFSMDQDYFYTGYTGEPIQTTTHIVQVGKPIGTFYGLKSVDITDDGLWLVENKKGEHVLAEETDATDWQVLGNGIPKHYLNWNNTFNFFNFDLSINMRGAFGFQILNYQRMYYENAKPEIQYNRLNSAFDKVYGKTQLKDDQRYVSYYVEDGDYWKIDNVTLGYTFKLSKQHIIKNLRIYASVLNLATITGYKGMDPEVPLSSNTYGLLDAGTDNRDKYPTNRTYTFGVNLTF,not soluble
11,MSEVLNRQSREITTIVSQPNISRPNYQREKGKERLLGIKATESSNKAGQSFVPQLNPSGTLFTISMKPPAKINTGYTPVDEQKEVKAEVRNSEITEKSFGQAKFIGVSAGNTVGYVIPNLEPGLSQYLQANRSLRAIGVISSRVGAAAQIMAADEAVKKTNSELIRLELARDELGGPGHGVFALFGAEDVADVIRAVEIALKATEEYYQNIKNTPAGKIETHYTARAAAALNKAFGAPLNQAFGIIIGAPAGVGLLMSDTALKTAHVTMVSFWGPSVVQAFANEVWFTVTGDSAAVKNALEAAREVGLQVLAEFRA,not soluble
12,MAAMRKALPRRLVGLASLRAVSTSSMGTLPKRVKIVEVGPRDGLQNEKNIVSTPVKIKLIDMLSEAGLSVIETTSFVSPKWVPQMGDHTEVLKGIQKFPGINYPVLTPNLKGFEAAVAAGAKEVVIFGAASELFTKKNINCSIEESFQRFDAILKAAQSANISVRGYVSCALGCPYEGKISPAKVAEVTKKFYSMGCYEISLGDTIGVGTPGIMKDMLSAVMQEVPLAALAVHCHDTYGQALTNTLMALQMGVSVVDSSVAGLGGCPYAQGASGNLATEDLVYMLEGLGIHTGVNLQKLLEAGNFICQALNRKTSSKVAQATCKL,soluble
13,MARLKTAQPNSSLRKIAVVVATAVSGMSVYAQAAVQPKEETITVTAAPAAQESAWGPAPTIAAKRSATTTKTDTPIEKTPQSVSVVTNEEMQMHQFQSVKEALGYTPGVTVSSRGASNTYDFVIIRGFSSVGLSQNNYLDGLKLQGNFYNDAVIDPYMLERVELMRGPTSVLYGKSNPGGIISMVSKRPTTEPLKEIQFKMGTDNLFQTGFDFSDSLDDNGEFSYRLTGLARSTNEQQKSSESQRYAIAPSFTWRPDEKTNFTFLSYFQNEPETGYYGWLPKEGTVEPLPNGKRLPTDFNEGASNNTYSRNEKMVGYSFEHGFNDTFTVRQNLRFVEMKTAQKSVYGTGIAADGHTLNRGTIVDNERLQNFSVDTQLESKFATGDIDHTLLTGVDFMRMRNDINATFGSAPSIDLYNNYHPEYFAFGGAEPYQMNESKQTGLYVQDQAEWNKWVFTLGGRYDWSKQATTVRQNSTTPTEGYIERNDHQFTWRGGVNYVFDNGISPYFSYSQSFEPSAFDLWSTPRVSYKPSKGEQYEAGVKYVPKDMPVVVTGAVYQLTKTNNLTADPTNPLAQVPAGEIRARGVELEAKAALTANINMTASYTYTDAEYTKDTNLKGNTPEQVPEHMASLWGDYTFNEGPLSGLTLGTGGRFIGSSYGDPANSFKVGSAAVMDAVVKYDLARFGMAGSSIAVNVNNLLDREYVASCFQTYGCFWGAERQVVATATFRF,not soluble
14,MPYIIPTFEEIRAAILRDVKNLLPDADTGPDSDAFIRASSTASAVYGLYQHQLWMARQILPDTADTAYLESHAALRGITRKPATKATGTLTLTGTPGAAVPAGTEARHIATGATFRTTATVTLAENGTASAPCEASVAGAMPDYTAETVLLTAPPPGVQSTASLALTGGTDTETDAELLERLLFHFRNPPGGGNRYDYKRWALEVPGVTGAWVYPLRRGLGTVDVAVLSAGGLPTPELLAAAQARIDERRPVACKDARVLAPTPLAVDVRVRVRLAGTTLPVVTTQVREALAAHFGGYEPGGQVVRSRLEAIISGIPGVADRDLTAPSANVQAVVDASRVEWPRLGTVTVEAMLEHHHHHH,soluble
15,MVALFPSSPAEDLLAEGPCVMTGKGLHQLLLDRWGYSYGLQLRRTQGKIFLQIMWKYLEQASFPMDEGEYFSHLNEVASYLVALGAAEAIAQTIRETREKPRLGKAVSIPIELGARASEWFPDLEHHHHHH,soluble
